According to patent US20110287023A1 (AstraZeneca / MedImmune, published 2011):

Assays:
[1] = molecular target: T1, recombinant HMG1 produced in E. coli as a calmodulin binding protein (CBP) fusion (human); experiment: BIAcore 3000, mAb amine-coupled to CM5, HMG1 injected, steady-state model
T1 construct: also called rHMG1; rHMGB1
Procedure: HMG1 Binding Affinity via BIAcore Analysis: All experiments were performed on a BIAcore 3000 instrument (BIAcore, Inc., Piscataway, N.J.). Briefly, each mAb was immobilized to a CM5 sensor chip using a standard amine coupling chemistry. Separately a reference (control) flow cell was also prepared. Two-fold, serial dilutions of HMG1 in instrument buffer were sequentially injected at a slow flow rate over the individual mAb and reference flow-cell surfaces. Following the binding and dissociation of HMG1, the mAbs surfaces were regenerated with a brief pulse of 1M NaCl-50 mM NaOH. At the end of each experiment, the binding curves were evaluated using a steady-state model available through the BIAevaluation software supplied by BIAcore, Inc. (Piscataway, N.J.).

[2] = molecular target: T2, HMGB1 in human brain tissue of multiple sclerosis plaques (human, UniProt P09429 1-215); experiment: staining of human brain tissue
T2 construct: whole, on cells; tissue staining; also called HMGB1 in MS plaques
T2 sequence (looked up): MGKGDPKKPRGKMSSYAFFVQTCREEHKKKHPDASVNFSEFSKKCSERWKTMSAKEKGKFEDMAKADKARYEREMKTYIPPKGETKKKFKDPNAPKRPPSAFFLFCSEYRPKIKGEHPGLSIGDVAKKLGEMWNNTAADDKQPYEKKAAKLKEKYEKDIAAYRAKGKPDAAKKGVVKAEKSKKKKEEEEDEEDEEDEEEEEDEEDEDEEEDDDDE

[3] = molecular target: T3, HMG1 B Box peptide amino acids 91-169; experiment: ELISA, HMG1 B Box peptide 91-169 coated at 10 ug/ml, antibody titrated, OD 450
T3 construct: also called HMG1 peptide 91-169
T3 peptide: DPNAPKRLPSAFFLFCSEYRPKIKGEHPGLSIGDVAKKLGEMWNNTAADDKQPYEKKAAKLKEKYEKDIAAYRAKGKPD
Procedure: (§1) The plate was then blocked with 4% milk powder dissolved in PBS at 37° C. for 1 hour. The blocking solution was removed and replaced with human anti-HMG1 antibodies at various concentrations (see FIGS. 5A-B). […] HRP activity was detected with Sureblue HRP substrate (KPL). Plates were read at 450 nm using a Kinetic Microplate Reader (Molecular Devices). […] After washing and blocking with 1% BSA in PBS, the biotinylated peptides were individually added into the avidin coated wells and incubated for 30 min at room temperature. The serial diluted antibody G4, S16 and S6 at the initial concentration at 10 μg/ml were then transferred into the wells followed by adding mouse anti human IgG-HRP conjugate (Pierce). Detection was accomplished by adding 50 μl of tetramethylbenzidine (TMB) substrate (KPL) and the absorbance was read at 450 nm.

[4] = molecular target: T4, HMG1 B Box peptide amino acids 150-183; experiment: ELISA, HMG1 B Box peptide 150-183 coated at 10 ug/ml, antibody titrated, OD 450
T4 peptide: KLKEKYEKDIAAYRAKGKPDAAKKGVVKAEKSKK
Procedure: as §1

[5] = molecular target: T1, recombinant HMG1 produced in E. coli as …; experiment: cell-based or functional assay
[6] = molecular target: T4, HMG1 B Box peptide amino acids 150-183; experiment: ELISA, HMG1 B Box peptide 150-183 coated at 10 ug/ml, antibody titrated, anti-human IgG-HRP, OD 450
Procedure: as §1

[7] = molecular target: T3, HMG1 B Box peptide amino acids 91-169; experiment: ELISA, HMG1 B Box peptide 91-169 coated at 10 ug/ml, antibody titrated, anti-human IgG-HRP, OD 450
Procedure: as §1

[8] = molecular target: T5, HMG2 coated on ELISA plates (Bos taurus (Bovine), UniProt P40673 2-209); experiment: direct ELISA, HMGB2 coated at 5 ug/mL, antibody at 10 ug/mL, anti-human kappa/lambda-HRP, OD 490
T5 construct: also called HMGB2; HMBG2
T5 sequence: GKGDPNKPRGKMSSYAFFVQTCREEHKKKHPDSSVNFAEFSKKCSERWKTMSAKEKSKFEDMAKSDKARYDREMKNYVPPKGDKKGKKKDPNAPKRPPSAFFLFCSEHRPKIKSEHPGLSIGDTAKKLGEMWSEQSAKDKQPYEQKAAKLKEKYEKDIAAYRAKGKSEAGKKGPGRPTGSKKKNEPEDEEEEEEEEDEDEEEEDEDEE
Procedure: (§2) Binding to HMG1 vs. HMG2: Ultra high-binding ELISA plates (ThermoLab systems, #3855) were coated with either 5 ug/mL of Calf thymus HMGB1 or HMBG2 diluted in 10 mM Phosphate buffered saline (PBS), pH 7.2 and incubate overnight at 4 degrees. The plates were washed twice with Ca and Mg free PBS and 100 microliters of anti-HMGB1 antibody diluted in 10 mM PBS, pH 7.2+1% bovine serum albumin (BSA) to a final concentration of 10 ug/mL was added to each well and the plates were incubated 1 hour at room temperature. The wells were washed three times with 100 μl of PBS, pH 7.2. HRP labeled goat-anti-human IgG Kappa-chain (KPL, #14-10-10) and goat-anti-human IgG Lambda-chain (KPL, #14-10-11) were diluted in 10 mM PBS+1% BSA 1:1000 and 100 μl were added to each well and incubated for 1 hour at room temperature. The wells were then washed three times with 100 μl of PBS, pH 7.2. OPD substrate (Pierce chemical company, #34006) was prepared following the manufacturers instructions and 100 μl of prepared substrate was added to each well and the plates incubated at room temperature in the dark for 20-30 minutes. The reaction was stopped with the addition of 100 μl of 2M H₂SO₄, and the plates read on a plate reader at a wavelength of 490 nm.

[9] = molecular target: T6, HMG1 purified from calf (bovine) thymus (bovine, UniProt P10103 2-215); experiment: direct ELISA, calf thymus HMGB1 coated at 5 ug/mL, antibody at 10 ug/mL, anti-human kappa/lambda-HRP, OD 490
T6 construct: also called Calf thymus HMGB1; thymus HMG1
T6 sequence (looked up): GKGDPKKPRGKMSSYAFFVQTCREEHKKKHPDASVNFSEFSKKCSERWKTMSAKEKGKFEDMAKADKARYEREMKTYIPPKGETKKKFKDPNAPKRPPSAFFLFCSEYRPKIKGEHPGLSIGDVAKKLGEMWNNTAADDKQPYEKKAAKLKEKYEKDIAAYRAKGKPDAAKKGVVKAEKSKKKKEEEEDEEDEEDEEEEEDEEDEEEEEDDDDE
Procedure: as §2

[10] = molecular target: T7, mouse RAGE/Fc fusion protein (mouse, UniProt Q62151 24-342, limits assumed); experiment: ELISA (right panel): RAGE-Fc immobilized, HMGB1 titrated in the presence of 0.03 µM CpG-A
T7 construct: not shown: Fc part, not described
T7 sequence (Q62151 24-342 limits assumed): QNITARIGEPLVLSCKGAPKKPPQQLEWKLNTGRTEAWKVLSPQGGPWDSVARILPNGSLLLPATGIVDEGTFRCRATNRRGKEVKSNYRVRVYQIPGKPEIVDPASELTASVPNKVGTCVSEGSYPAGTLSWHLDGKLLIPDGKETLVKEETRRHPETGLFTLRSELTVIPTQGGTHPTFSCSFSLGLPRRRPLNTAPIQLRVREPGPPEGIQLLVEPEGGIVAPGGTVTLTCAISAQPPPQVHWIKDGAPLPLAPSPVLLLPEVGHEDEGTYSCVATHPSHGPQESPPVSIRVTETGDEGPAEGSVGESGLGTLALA

B1: human anti-HMG1 antibody G16 (antibody, IgG1, V domains shown)
VH: EVQLLESGGGLVQPGGSLRLSCAASGFTFSWYKMTWVRQAPGKGLEWVSSISPSGGFTSYADSVKGRFTISRDNSKNTLYLQMNSLRAEDTAVYYCARDLDIRHAFDIWGQGTMVTVSS
VL: DIQMTQSPGTLSLSPGESGTLSCRASESVSSRHFAWYQQKPGQAPRLLIYGASSRPTGIPDRFSGSGSGTDFTLTLSRLEPEDFAVYFCQYYGSSPYTFGGGTKVEMK
notes: full length IgG1 made from a human Fab phage clone
Kd [1]: 22 nM | binding result [2]: binds | binding result [3]: no binding (tested: 10 ug/ml (log 1.0)) | binding result [4]: no binding (tested: 10 ug/ml (log 1.0)) | IC50 IL-6 [5]: 1.06 nM | IC50 NO [5]: 22 µg/mL

B2: human anti-HMG1 antibody S12 (antibody, IgG1, V domains shown)
VH: EVQLLESGGGLVQPGGSLRLSCAASGFTFSKYIMHWVRQAPGKGLEWVSGIVPSGGLTEYADSVKGRFTISRDNSKNTLYLQMNSLRAEDTATYYCAKEIFGQFDYWGQGTLVTVSS
VL: AQSALTQPPSVSAAPRQRVTISCSGSTSNIGNNAVTWYQYFPGKAPKLLIYSDNQRPSGVPDRFSGSKSGTSASLAITGLQAEDEADYYCQSYDRGLSVVFGGGTKLTVL
notes: as for B1
binding result [6]: binds | binding result [7]: binds | binding result [8]: binds | IC50 IL-6 [5]: 1.67 nM | binding result [9]: binds

B3: complex of thymus HMGB1 with CpG-A DNA (other, bovine, UniProt P10103 2-215, looked up)
chain: GKGDPKKPRGKMSSYAFFVQTCREEHKKKHPDASVNFSEFSKKCSERWKTMSAKEKGKFEDMAKADKARYEREMKTYIPPKGETKKKFKDPNAPKRPPSAFFLFCSEYRPKIKGEHPGLSIGDVAKKLGEMWNNTAADDKQPYEKKAAKLKEKYEKDIAAYRAKGKPDAAKKGVVKAEKSKKKKEEEEDEEDEEDEEEEEDEEDEEEEEDDDDE
notes: also called HMGB1/CpG complex; HMGB1/CpG A complex
EC50 (read off the curve) [10]: ~100 nM
